*1 amine or outer side, *2 acyl side, *3 side chain or, on linkers, in order; H or OH if unused. Where no end group is shown, it is not given here. Side-chain parts run from the residue outwards. [ ]: non-standard residue; d: D form. The star is where a group is joined. phenyl lactic acid = phenyl lactic acid at the N-terminus; C16 diacid = O=C(O)CCCCCCCCCCCCCCC(=O)*; γGlu = O=C(O)[C@H](CCC(=O)[*:2])N[*:1]; Aib = CC(C)(N)C(=O)O
T1: human GIP receptor (human, UniProt P48546 22-466)
T1 sequence (looked up): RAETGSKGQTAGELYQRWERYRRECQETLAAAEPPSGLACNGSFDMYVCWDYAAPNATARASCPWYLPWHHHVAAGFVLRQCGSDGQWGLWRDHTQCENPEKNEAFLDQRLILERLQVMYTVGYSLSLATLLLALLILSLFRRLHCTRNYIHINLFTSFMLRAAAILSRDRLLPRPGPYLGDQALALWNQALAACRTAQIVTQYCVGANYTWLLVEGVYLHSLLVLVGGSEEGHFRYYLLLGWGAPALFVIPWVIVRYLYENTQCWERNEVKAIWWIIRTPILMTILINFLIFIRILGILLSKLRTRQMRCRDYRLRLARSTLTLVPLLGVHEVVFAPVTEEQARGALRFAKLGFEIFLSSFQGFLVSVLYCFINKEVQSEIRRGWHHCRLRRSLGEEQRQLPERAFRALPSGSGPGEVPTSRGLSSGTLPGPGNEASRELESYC

B1: AT650 (peptide)
peptide: EGTFISDYSIAMDKIK(C16 diacid)QQDFVNWLLAQKPSSGAPPPS-NH2
modifications: N-terminus assumed
SMILES: CC[C@H](C)[C@H](NC(=O)[C@H](CO)NC(=O)[C@H](Cc1ccc(O)cc1)NC(=O)[C@H](CC(=O)O)NC(=O)[C@H](CO)NC(=O)[C@@H](NC(=O)[C@H](Cc1ccccc1)NC(=O)[C@@H](NC(=O)CNC(=O)[C@@H](N)CCC(=O)O)[C@@H](C)O)[C@@H](C)CC)C(=O)N[C@@H](C)C(=O)N[C@@H](CCSC)C(=O)N[C@@H](CC(=O)O)C(=O)N[C@@H](CCCCN)C(=O)N[C@H](C(=O)N[C@@H](CCCCNC(=O)CCCCCCCCCCCCCCC(=O)O)C(=O)N[C@@H](CCC(N)=O)C(=O)N[C@@H](CCC(N)=O)C(=O)N[C@@H](CC(=O)O)C(=O)N[C@@H](Cc1ccccc1)C(=O)N[C@H](C(=O)N[C@@H](CC(N)=O)C(=O)N[C@@H](Cc1c[nH]c2ccccc12)C(=O)N[C@@H](CC(C)C)C(=O)N[C@@H](CC(C)C)C(=O)N[C@@H](C)C(=O)N[C@@H](CCC(N)=O)C(=O)N[C@@H](CCCCN)C(=O)N1CCC[C@H]1C(=O)N[C@@H](CO)C(=O)N[C@@H](CO)C(=O)NCC(=O)N[C@@H](C)C(=O)N1CCC[C@H]1C(=O)N1CCC[C@H]1C(=O)N1CCC[C@H]1C(=O)N[C@@H](CO)C(N)=O)C(C)C)[C@@H](C)CC
B2: AT642 (peptide)
peptide: PETFISDYSIAMDKIK(C16 diacid)QQDFVNWLLAQKPSSGAPPPS-OH
modifications: N-terminus assumed
SMILES: CC[C@H](C)[C@H](NC(=O)[C@H](CO)NC(=O)[C@H](Cc1ccc(O)cc1)NC(=O)[C@H](CC(=O)O)NC(=O)[C@H](CO)NC(=O)[C@@H](NC(=O)[C@H](Cc1ccccc1)NC(=O)[C@@H](NC(=O)[C@H](CCC(=O)O)NC(=O)[C@@H]1CCCN1)[C@@H](C)O)[C@@H](C)CC)C(=O)N[C@@H](C)C(=O)N[C@@H](CCSC)C(=O)N[C@@H](CC(=O)O)C(=O)N[C@@H](CCCCN)C(=O)N[C@H](C(=O)N[C@@H](CCCCNC(=O)CCCCCCCCCCCCCCC(=O)O)C(=O)N[C@@H](CCC(N)=O)C(=O)N[C@@H](CCC(N)=O)C(=O)N[C@@H](CC(=O)O)C(=O)N[C@@H](Cc1ccccc1)C(=O)N[C@H](C(=O)N[C@@H](CC(N)=O)C(=O)N[C@@H](Cc1c[nH]c2ccccc12)C(=O)N[C@@H](CC(C)C)C(=O)N[C@@H](CC(C)C)C(=O)N[C@@H](C)C(=O)N[C@@H](CCC(N)=O)C(=O)N[C@@H](CCCCN)C(=O)N1CCC[C@H]1C(=O)N[C@@H](CO)C(=O)N[C@@H](CO)C(=O)NCC(=O)N[C@@H](C)C(=O)N1CCC[C@H]1C(=O)N1CCC[C@H]1C(=O)N1CCC[C@H]1C(=O)N[C@@H](CO)C(=O)O)C(C)C)[C@@H](C)CC
B3: AT643 (peptide)
peptide: DTTFISDYSIAMDKIK(C16 diacid)QQDFVNWLLAQKPSSGAPPPS-OH
modifications: N-terminus assumed
SMILES: CC[C@H](C)[C@H](NC(=O)[C@H](CO)NC(=O)[C@H](Cc1ccc(O)cc1)NC(=O)[C@H](CC(=O)O)NC(=O)[C@H](CO)NC(=O)[C@@H](NC(=O)[C@H](Cc1ccccc1)NC(=O)[C@@H](NC(=O)[C@@H](NC(=O)[C@@H](N)CC(=O)O)[C@@H](C)O)[C@@H](C)O)[C@@H](C)CC)C(=O)N[C@@H](C)C(=O)N[C@@H](CCSC)C(=O)N[C@@H](CC(=O)O)C(=O)N[C@@H](CCCCN)C(=O)N[C@H](C(=O)N[C@@H](CCCCNC(=O)CCCCCCCCCCCCCCC(=O)O)C(=O)N[C@@H](CCC(N)=O)C(=O)N[C@@H](CCC(N)=O)C(=O)N[C@@H](CC(=O)O)C(=O)N[C@@H](Cc1ccccc1)C(=O)N[C@H](C(=O)N[C@@H](CC(N)=O)C(=O)N[C@@H](Cc1c[nH]c2ccccc12)C(=O)N[C@@H](CC(C)C)C(=O)N[C@@H](CC(C)C)C(=O)N[C@@H](C)C(=O)N[C@@H](CCC(N)=O)C(=O)N[C@@H](CCCCN)C(=O)N1CCC[C@H]1C(=O)N[C@@H](CO)C(=O)N[C@@H](CO)C(=O)NCC(=O)N[C@@H](C)C(=O)N1CCC[C@H]1C(=O)N1CCC[C@H]1C(=O)N1CCC[C@H]1C(=O)N[C@@H](CO)C(=O)O)C(C)C)[C@@H](C)CC
B4: AT644 (peptide)
peptide: GETFISDYAIALDKIK(C16 diacid)QQDFVEWLLAQGPSSGAPPPS-OH
modifications: N-terminus assumed
SMILES: CC[C@H](C)[C@H](NC(=O)[C@H](C)NC(=O)[C@H](Cc1ccc(O)cc1)NC(=O)[C@H](CC(=O)O)NC(=O)[C@H](CO)NC(=O)[C@@H](NC(=O)[C@H](Cc1ccccc1)NC(=O)[C@@H](NC(=O)[C@H](CCC(=O)O)NC(=O)CN)[C@@H](C)O)[C@@H](C)CC)C(=O)N[C@@H](C)C(=O)N[C@@H](CC(C)C)C(=O)N[C@@H](CC(=O)O)C(=O)N[C@@H](CCCCN)C(=O)N[C@H](C(=O)N[C@@H](CCCCNC(=O)CCCCCCCCCCCCCCC(=O)O)C(=O)N[C@@H](CCC(N)=O)C(=O)N[C@@H](CCC(N)=O)C(=O)N[C@@H](CC(=O)O)C(=O)N[C@@H](Cc1ccccc1)C(=O)N[C@H](C(=O)N[C@@H](CCC(=O)O)C(=O)N[C@@H](Cc1c[nH]c2ccccc12)C(=O)N[C@@H](CC(C)C)C(=O)N[C@@H](CC(C)C)C(=O)N[C@@H](C)C(=O)N[C@@H](CCC(N)=O)C(=O)NCC(=O)N1CCC[C@H]1C(=O)N[C@@H](CO)C(=O)N[C@@H](CO)C(=O)NCC(=O)N[C@@H](C)C(=O)N1CCC[C@H]1C(=O)N1CCC[C@H]1C(=O)N1CCC[C@H]1C(=O)N[C@@H](CO)C(=O)O)C(C)C)[C@@H](C)CC
B5: AT641 (peptide)
peptide: GETFISDYSIAMDKIK(C16 diacid)QQDFVNWLLAQKPSSGAPPPS-OH
modifications: N-terminus assumed
SMILES: CC[C@H](C)[C@H](NC(=O)[C@H](CO)NC(=O)[C@H](Cc1ccc(O)cc1)NC(=O)[C@H](CC(=O)O)NC(=O)[C@H](CO)NC(=O)[C@@H](NC(=O)[C@H](Cc1ccccc1)NC(=O)[C@@H](NC(=O)[C@H](CCC(=O)O)NC(=O)CN)[C@@H](C)O)[C@@H](C)CC)C(=O)N[C@@H](C)C(=O)N[C@@H](CCSC)C(=O)N[C@@H](CC(=O)O)C(=O)N[C@@H](CCCCN)C(=O)N[C@H](C(=O)N[C@@H](CCCCNC(=O)CCCCCCCCCCCCCCC(=O)O)C(=O)N[C@@H](CCC(N)=O)C(=O)N[C@@H](CCC(N)=O)C(=O)N[C@@H](CC(=O)O)C(=O)N[C@@H](Cc1ccccc1)C(=O)N[C@H](C(=O)N[C@@H](CC(N)=O)C(=O)N[C@@H](Cc1c[nH]c2ccccc12)C(=O)N[C@@H](CC(C)C)C(=O)N[C@@H](CC(C)C)C(=O)N[C@@H](C)C(=O)N[C@@H](CCC(N)=O)C(=O)N[C@@H](CCCCN)C(=O)N1CCC[C@H]1C(=O)N[C@@H](CO)C(=O)N[C@@H](CO)C(=O)NCC(=O)N[C@@H](C)C(=O)N1CCC[C@H]1C(=O)N1CCC[C@H]1C(=O)N1CCC[C@H]1C(=O)N[C@@H](CO)C(=O)O)C(C)C)[C@@H](C)CC
B6: AT646 (peptide)
peptide: GETFISTYSIALDKIK(C16 diacid)QQDFVEWLLAQKPSSGAPPPS-OH
modifications: N-terminus assumed
SMILES: CC[C@H](C)[C@H](NC(=O)[C@H](CO)NC(=O)[C@H](Cc1ccc(O)cc1)NC(=O)[C@@H](NC(=O)[C@H](CO)NC(=O)[C@@H](NC(=O)[C@H](Cc1ccccc1)NC(=O)[C@@H](NC(=O)[C@H](CCC(=O)O)NC(=O)CN)[C@@H](C)O)[C@@H](C)CC)[C@@H](C)O)C(=O)N[C@@H](C)C(=O)N[C@@H](CC(C)C)C(=O)N[C@@H](CC(=O)O)C(=O)N[C@@H](CCCCN)C(=O)N[C@H](C(=O)N[C@@H](CCCCNC(=O)CCCCCCCCCCCCCCC(=O)O)C(=O)N[C@@H](CCC(N)=O)C(=O)N[C@@H](CCC(N)=O)C(=O)N[C@@H](CC(=O)O)C(=O)N[C@@H](Cc1ccccc1)C(=O)N[C@H](C(=O)N[C@@H](CCC(=O)O)C(=O)N[C@@H](Cc1c[nH]c2ccccc12)C(=O)N[C@@H](CC(C)C)C(=O)N[C@@H](CC(C)C)C(=O)N[C@@H](C)C(=O)N[C@@H](CCC(N)=O)C(=O)N[C@@H](CCCCN)C(=O)N1CCC[C@H]1C(=O)N[C@@H](CO)C(=O)N[C@@H](CO)C(=O)NCC(=O)N[C@@H](C)C(=O)N1CCC[C@H]1C(=O)N1CCC[C@H]1C(=O)N1CCC[C@H]1C(=O)N[C@@H](CO)C(=O)O)C(C)C)[C@@H](C)CC

These binders were tested against T1, human GIP receptor (assay: cell-based or functional assay).
In the case of B1, the “cAMP agonism % Emax” value is reported as 0%, the “cAMP antagonism” value is reported as 3.69 nM and the “cAMP antagonism % inhib” value is reported as 94%. For the same binder, the “cAMP antagonism pIC50” value was 8.4.
In the case of {phenyl lactic acid}-PGTFISDYSIAMDKIKQQDFVNWLLAQKPSSGAPPPSK(C16 diacid)-NH2 (not fully specified) [AT652], the “cAMP agonism % Emax” value is reported as 17%, the “cAMP antagonism” value is reported as 10.6 nM and the “cAMP antagonism % inhib” value is reported as 60%. For the same binder, the “cAMP antagonism pIC50” value was 8.
B2 was tested, and the “cAMP agonism % Emax” value was 0%, the “cAMP antagonism” value was 35.5 nM and the “cAMP antagonism % inhib” value was 92%. For the same binder, the “cAMP antagonism pIC50” value was 7.5.
In the case of EGTFISDYSI[Aib]MDKIK(C16 diacid)QQDFVEWLLAQKPSSGAPPPS-OH [AT665], the “cAMP agonism % Emax” value is reported as 0%, the “cAMP antagonism” value is reported as 0.15 nM and the “cAMP antagonism % inhib” value is reported as 88%. The “cAMP antagonism pIC50” value was 9.8.
With B3 the “cAMP agonism % Emax” value was 0%, the “cAMP antagonism” value was 11.2 nM and the “cAMP antagonism % inhib” value was 90%. For the same binder, the “cAMP antagonism pIC50” value was 8.
B4 was tested, and the “cAMP agonism % Emax” value was 0%, the “cAMP antagonism” value was 17.1 nM and the “cAMP antagonism % inhib” value was 93%. For the same binder, the “cAMP antagonism pIC50” value was 7.8.
With B5 the “cAMP agonism % Emax” value was 0%, the “cAMP antagonism” value was 7.94 nM and the “cAMP antagonism % inhib” value was 91%. The “cAMP antagonism pIC50” value was 8.1.
B6 was tested, and the “cAMP agonism % Emax” value was 0%, the “cAMP antagonism” value was 10 nM and the “cAMP antagonism % inhib” value was 96%. The “cAMP antagonism pIC50” value was 8.
EGTFISTYK([γGlu-C16 diacid])IALDKIHQQDFVEWLLAQKPSSGAPPPS-OH [AT647] was tested, and the “cAMP agonism % Emax” value was 0%, the “cAMP antagonism” value was 18.8 nM and the “cAMP antagonism % inhib” value was 100%. The “cAMP antagonism pIC50” value was 7.7.

From patent publication US20220298218A1 (ANTAG THERAPEUTICS, published 2022)
